Patent publication US20140161790A1

Legend:
[1] = molecular target: human FcRn (heterodimer of alpha chain and beta2-microglobulin) (human) (UniProt P55899); assay: Biacore (SPR), column 'hFcRn Affinity (uM)'; antibody captured on anti-hFab CM5 chip, hFcRn as analyte, PBS pH 6.0, 1:1 Langmuir fit
[2] = molecular target: recombinant human TNF (human) (UniProt P01375); assay: Biacore (SPR), column 'hTNF Affinity (pM)'; antibody amine-coupled to a CM4 chip, recombinant human TNF as analyte at 6.25-200 nM in HBS-EP pH 7.4, 1:1 Langmuir fit
Sequence of recombinant human TNF (human) (P01375 77-233 limits assumed): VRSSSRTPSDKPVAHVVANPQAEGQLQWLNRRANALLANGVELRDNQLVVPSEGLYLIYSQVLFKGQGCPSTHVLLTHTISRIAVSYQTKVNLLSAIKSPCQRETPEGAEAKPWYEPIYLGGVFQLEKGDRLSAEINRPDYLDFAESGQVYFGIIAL

Sequence of human FcRn (heterodimer of alpha chain and beta2-microglobulin) (human) (P55899 24-297 limits assumed, chain 1 of 2): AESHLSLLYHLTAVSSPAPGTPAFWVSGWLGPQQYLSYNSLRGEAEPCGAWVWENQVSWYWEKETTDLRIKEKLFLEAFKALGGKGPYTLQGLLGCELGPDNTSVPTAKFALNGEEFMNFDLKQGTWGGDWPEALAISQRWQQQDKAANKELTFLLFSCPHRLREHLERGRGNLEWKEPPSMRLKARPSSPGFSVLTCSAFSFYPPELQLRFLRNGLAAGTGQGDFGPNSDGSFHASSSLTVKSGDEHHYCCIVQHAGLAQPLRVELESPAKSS
Sequence of human FcRn (heterodimer of alpha chain and beta2-microglobulin) (human) (P61769 21-119 limits assumed, chain 2 of 2, further chain): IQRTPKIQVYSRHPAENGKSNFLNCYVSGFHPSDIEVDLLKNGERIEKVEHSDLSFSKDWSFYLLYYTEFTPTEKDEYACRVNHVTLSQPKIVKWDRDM

Q: With “Humira (Commercial) adalimumab (antibody)” as the substance, how does the Kd [1] read?
A: 2 µM

Q: And the Kd [2]?
A: 0.42 pM
